For experiment [1], the target named is UmpH (ribonucleotide monophosphatase), untagged recombinant (E. coli) (UniProt P0AF24).
Experiment [2] shares this target. This is another data set of the same source.
The target in experiment [3] is His-GlnK (E. coli PII signaling protein GlnK, N-terminal His tag) (E. coli) (UniProt P0AC55). Nature of the experiment: BLI; His-GlnK on Ni-NTA biosensor, UmpH as analyte; 20 mM Hepes pH 7.4, 50 mM KCl, 5 mM MgCl2, 2 mM DTT, 2 mM NAG; no effector; 1:1 (GlnK trimer:UmpH monomer) model. A general note: BLI is a label-free optical method that tracks binding on a fibre tip over time.

Experiment [4] shares this target. Put plainly: BLI; His-GlnK on Ni-NTA biosensor, UmpH as analyte; 20 mM Hepes pH 7.4, 50 mM KCl, 5 mM MgCl2, 2 mM DTT, 2 mM NAG; 1 mM ATP; 1:1 (GlnK trimer:UmpH monomer) model.
For experiment [5] the target is unchanged. Put plainly: BLI; His-GlnK on Ni-NTA biosensor, UmpH as analyte; 20 mM Hepes pH 7.4, 50 mM KCl, 5 mM MgCl2, 2 mM DTT, 2 mM NAG; 1 mM ADP; 1:1 (GlnK trimer:UmpH monomer) model.

Chain of His-GlnK (E. coli PII signaling protein GlnK, N-terminal His tag) (E. coli) (P0AC55 whole entry): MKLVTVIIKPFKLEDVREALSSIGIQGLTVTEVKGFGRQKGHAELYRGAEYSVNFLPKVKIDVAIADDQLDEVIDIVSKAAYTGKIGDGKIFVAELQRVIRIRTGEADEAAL
Chain of UmpH (ribonucleotide monophosphatase), untagged recombinant (E. coli) (P0AF24 whole entry): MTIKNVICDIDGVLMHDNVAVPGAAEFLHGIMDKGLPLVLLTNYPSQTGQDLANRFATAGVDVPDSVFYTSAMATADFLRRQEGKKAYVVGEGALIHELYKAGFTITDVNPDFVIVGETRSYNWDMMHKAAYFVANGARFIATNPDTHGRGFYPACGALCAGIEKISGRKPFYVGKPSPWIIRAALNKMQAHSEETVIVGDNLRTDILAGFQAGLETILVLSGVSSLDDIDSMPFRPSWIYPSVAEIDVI

“His-GlnK (E. coli PII signaling protein GlnK, N-terminal His tag) (from UniProt P0AC55 1-112) (natural protein)”: in experiment [1], the inhibition of UmpH phosphatase activity (0.5 mM UMP, 0.1 mM ADP, 0.56 μM UmpH) against increasing GlnK trimer up to 2 μM was 50%. For the same substance, in experiment [2], the UmpH Vmax (phosphate release from UMP), decrease in the presence of 2 μM GlnK trimer, 0.56 μM UmpH monomer, no GlnK effectors turned out to be 30% and the UmpH catalytic efficiency (Vmax/KM) for UMP, decrease in the presence of 2 μM GlnK trimer, 0.56 μM UmpH monomer, no GlnK effectors turned out to be 68%.

In general, Kd refers to a measure of binding affinity in units of concentration. On to “UmpH (ribonucleotide monophosphatase), untagged recombinant (from UniProt P0AF24 1-250) (enzyme)”, for which the Kd is 50.6 nM in experiment [3], 37.3 nM in experiment [4] and 7.8 nM in experiment [5].

For the origin of these results see publication PMC11617674, “The activity of the ribonucleotide monophosphatase UmpH is controlled by interaction with the GlnK signaling protein in Escherichia coli” (The Journal of Biological Chemistry, 2024).
